Assay results reported in paper PMC10648076, “Statistical Improvement of rGILCC 1 and rPOXA 1B Laccases Activity Assay Conditions Supported by Molecular Dynamics” (Molecules, 2023).

Substrate: CCn1c(=NN=c2sc3cc(S(=O)(=O)O)ccc3n2CC)sc2cc(S(=O)(=O)O)ccc21
Test: spectrophotometric ABTS oxidation; Michaelis-Menten fit
Format: biochemical, Pleurotus ostreatus
Conditions: 100 mM sodium citrate buffer, pH 3.0 ± 0.2, 25 °C, apparent constant, enzyme concentrate
Excerpt: spectrophotometric ABTS oxidation; Michaelis-Menten fit on rPOXA 1B

B1: rPOXA 1B (Pleurotus ostreatus) (protein)
chain: SIGPRGTLNIANKVIQPDGFYRSTVLAGGSYPGPLIKGKTGDRFQINVVNKLADTSMPVDTSIHWHGLFVKGHNWADGPAMVTQCPIVPGHSFLYDFEVPDQAGTFWYHSHLGTQYCDGLRGPLVVYSKNDPHKRLYDVDDESTVLTVGDWYHAPSLSLTGVPHPDSTLFNGLGRSLNGPASPLYVMNVVKGKRYRIRLINTSCDSNYQFSIDGHTFTVIEADGENTQPLQVDQVQIFAGQRYSLVLNANQAVGNYWIRANPNSGDPGFENQMNSAILRYKGARSIDPTTPEQNATNPLHEYNLRPLIKKPAPGKPFPGGADHNINLNFAFDPATALFTANNHTFVPPTVPVLLQILSGTRDAHDLAPAGSIYDIKLGDVVEITMPALVFAGPHPIHLHGHTFAVVRSAGSSTYNYENPVRRDVVSIGDDPTDNVTIRFVADNAGPWFLHCHIDWHLDLGFAVVFAEGVNQTAAANPVPEAWNNLCPIYNSSNPSKLLMGTNAIGRLPAPLKA
notes: secreted from Pichia pastoris/pGAPZαA-LaccPost-Stop (Clone 1); recombinant culture concentrate, not purified
- Km: 37.2 µM
- Vmax: 10.5 µM/min
